Test results published in patent publication US20170158762A1 (ANAPTYSBIO, published 2017).
Where a chain is given by its changes, count along the chain named. Blank lines part the entries; values can stand above or below the binder they belong to.

Experiments:
[1] = target: T1, Monomeric soluble human DDR1-avi-his, APE1469.6 (hDDR1) (human, UniProt Q08345 21-416, limits assumed); assay: SPR (BIACORE T200), antibody captured on anti-human IgG Fc, monomeric DDR1-avi-his as analyte, 25 C, 1:1 fit
T1 construct: also called hDDR1-avi-his; huDDR1; not shown: avi tag and his tag
Description: anti-Human IgG (Fc-specific, ≈10,000 RU) (GE Healthcare, Little Chalfont, Buckinghamshire, UK) was immobilized on a BIACORE™[…] chip using EDC-activated amine coupling chemistry. Antibodies (0.5 μg/mL, 50 second capture time at 10 μl/minute) were then captured using this surface to a target capture level of ˜125 RU. Monomeric soluble human DDR1-avi-his was then flowed over captured antibody (300 second association, 600 second dissociation) using a three-fold serial dilution series from 200 nM to 0.27 nM. Runs were performed at 25° C. and HBS-EP+, pH 7.6 buffer was used for all dilutions (Teknova, Hollister, Calif.). Captured antibody and antigen were removed between each cycle using two regeneration steps with 3M MgCl₂ (60 seconds contact time) to ensure a fresh binding surface for each concentration of antigen. The resulting sensorgrams were fit globally using a 1:1 binding model to calculate on- and off-rates (ka and kd, respectively) and dissociation constants as a measure of overall affinity (KD).

[2] = target: cell surface DDR1 on T47D cells and 293/DDR1 cells (UniProt Q08345); assay: cell-based or functional assay
[3] = target: T1, Monomeric soluble human DDR1-avi-his, …; assay: ELISA on coated hDDR1-avi-his; antibody kept in normal mouse serum (day 0, 1, 4, 7 at 37 C; day 7 at 4 C) or PBS day 0; absorbance 450-540 nm
Description: The APE05570 and APE05571 antibodies described in Table 4 were tested for the ability to bind cell surface DDR in mouse serum. The antibodies were incubated in normal mouse serum for 1, 4, or 7 days at 37° C. Varying concentrations of the antibodies were then analyzed for ability to bind to DDR1 by an ELISA assay. Briefly, hDDR1-avi-his was coated on plates at 1 μg/m overnight at 4° C. and washed three times in phosphate buffered saline with Tween (PBST). Plates were then blocked with 3% BSA/PBS (200 μl/well) for one hour. The antibodies were then diluted, added to the washed plates, and incubated for two hours at room temperature. Bound antibodies were detected with goat anti HuIgG-(H+L chain)-horseradish peroxidase (HRP) at a dilution of 1:10,000. After washing the plates, 100 μl of 3,3′,5,5′-tetramethylbenzidine (TMB) substrate was added to detect antibody, and plates were read at 450 nm using a SpectraMax™ microplate reader (Molecular Devices, LLC., Sunnyvale, Calif.).

T1 sequence (Q08345 21-416 limits assumed): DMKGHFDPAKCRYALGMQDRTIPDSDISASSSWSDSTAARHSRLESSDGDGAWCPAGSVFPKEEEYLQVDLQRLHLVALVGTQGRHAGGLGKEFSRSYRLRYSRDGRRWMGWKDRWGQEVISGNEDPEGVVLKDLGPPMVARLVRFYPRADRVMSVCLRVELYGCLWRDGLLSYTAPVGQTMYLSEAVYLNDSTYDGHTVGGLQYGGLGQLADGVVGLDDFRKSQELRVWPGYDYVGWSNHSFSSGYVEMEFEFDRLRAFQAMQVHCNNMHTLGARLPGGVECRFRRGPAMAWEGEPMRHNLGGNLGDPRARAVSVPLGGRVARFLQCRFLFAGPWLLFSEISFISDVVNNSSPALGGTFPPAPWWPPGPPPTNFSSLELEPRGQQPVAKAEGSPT
cell surface DDR1 on T47D cells and 293/DDR1 cells, sequence (Q08345 19-913, stated change not applied): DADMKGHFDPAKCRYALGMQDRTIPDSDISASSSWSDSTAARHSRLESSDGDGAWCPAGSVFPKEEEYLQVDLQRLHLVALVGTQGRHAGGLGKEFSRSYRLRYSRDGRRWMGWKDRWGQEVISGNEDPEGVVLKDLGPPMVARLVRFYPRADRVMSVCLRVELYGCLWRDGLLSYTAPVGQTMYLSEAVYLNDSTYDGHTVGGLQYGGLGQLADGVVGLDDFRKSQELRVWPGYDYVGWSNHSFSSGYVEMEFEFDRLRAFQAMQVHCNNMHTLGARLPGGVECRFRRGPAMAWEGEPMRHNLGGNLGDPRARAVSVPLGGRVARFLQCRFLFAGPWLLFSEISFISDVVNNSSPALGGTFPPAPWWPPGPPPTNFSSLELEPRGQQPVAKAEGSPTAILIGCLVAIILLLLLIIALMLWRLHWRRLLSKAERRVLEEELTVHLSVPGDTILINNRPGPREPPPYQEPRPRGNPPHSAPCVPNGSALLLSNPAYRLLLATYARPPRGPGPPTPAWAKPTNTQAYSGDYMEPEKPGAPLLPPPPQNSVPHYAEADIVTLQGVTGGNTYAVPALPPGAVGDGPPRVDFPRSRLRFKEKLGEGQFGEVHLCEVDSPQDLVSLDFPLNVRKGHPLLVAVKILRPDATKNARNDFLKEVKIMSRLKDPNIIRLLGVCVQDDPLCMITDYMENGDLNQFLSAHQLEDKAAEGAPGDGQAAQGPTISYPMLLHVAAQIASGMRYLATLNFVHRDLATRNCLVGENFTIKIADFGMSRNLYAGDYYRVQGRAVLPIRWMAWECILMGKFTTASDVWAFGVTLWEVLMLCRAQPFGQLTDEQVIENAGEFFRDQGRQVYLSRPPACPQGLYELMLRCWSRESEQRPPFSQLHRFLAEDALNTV

Kd [1]: 43.8 nM
koff [1]: 0.0222 s⁻¹
kon [1]: 507000 M⁻¹ s⁻¹
P-DDR1 IC50 (nM); collagen I-stimulated T47D cells, Phospho-DDR1 ELISA [2]: 27.6 nM
B1: APE05552 (antibody, V domains shown)
VH: EVQLVQSGAEVKKPGESLKISCKGSGYSFTNSYWIGWVRQMPGKGLEWMGMIYPGDSDTRYSPSFQGQVTISSDKSISTAYLQWNSLKASDTAVYYCAKDLAPSAYYDYWGQGTLVTVSS
VL: EIVLTQSPGTLSLSPGERATLSCRASQSVRSSYLAYLAWYQQKPGQAPRLLIYDASSRATGIPDRFSGSGSGTDFTLTISRLEPEDFAVYYCQQYGRLPYTFGQGTRLEIKR
notes: from the stated CDR positions they appear to be variable regions; human IgG (captured with anti-human IgG Fc); also called APE05552.2

Kd [1]: 47 nM
koff [1]: 0.0233 s⁻¹
kon [1]: 496000 M⁻¹ s⁻¹
P-DDR1 IC50 (nM); collagen I-stimulated T47D cells, Phospho-DDR1 ELISA [2]: 19.3 nM
EC50 (read off the curve) [3]: ~7 ng/mL
B2: APE05571 (antibody, V domains shown)
VH: B1 VH with N85A, A102T
VL: B1 VL
notes: from the stated CDR positions they appear to be variable regions; human IgG (captured with anti-human IgG Fc); also called APE05571.1

Kd [1]: 51.4 nM
koff [1]: 0.0284 s⁻¹
kon [1]: 551000 M⁻¹ s⁻¹
P-DDR1 IC50 (nM); collagen I-stimulated T47D cells, Phospho-DDR1 ELISA [2]: 26.1 nM
B3: APE05551 (antibody, V domains shown)
VH: B1 VH with D108N
VL: B1 VL
notes: from the stated CDR positions they appear to be variable regions; human IgG (captured with anti-human IgG Fc); also called APE05551.2
